Experimental data reported in patent US20250257126A1 (CAMBRIDGE ENTERPRISE, published 2025).

Biological target: T1, human LGR5-eGFP transgene (human, UniProt O75473 22-907)
T1 construct: Tested on live or fixed cells and as cell lysates on western blots; also called hLGR5-eGFP; LGR5-GFP
T1 sequence: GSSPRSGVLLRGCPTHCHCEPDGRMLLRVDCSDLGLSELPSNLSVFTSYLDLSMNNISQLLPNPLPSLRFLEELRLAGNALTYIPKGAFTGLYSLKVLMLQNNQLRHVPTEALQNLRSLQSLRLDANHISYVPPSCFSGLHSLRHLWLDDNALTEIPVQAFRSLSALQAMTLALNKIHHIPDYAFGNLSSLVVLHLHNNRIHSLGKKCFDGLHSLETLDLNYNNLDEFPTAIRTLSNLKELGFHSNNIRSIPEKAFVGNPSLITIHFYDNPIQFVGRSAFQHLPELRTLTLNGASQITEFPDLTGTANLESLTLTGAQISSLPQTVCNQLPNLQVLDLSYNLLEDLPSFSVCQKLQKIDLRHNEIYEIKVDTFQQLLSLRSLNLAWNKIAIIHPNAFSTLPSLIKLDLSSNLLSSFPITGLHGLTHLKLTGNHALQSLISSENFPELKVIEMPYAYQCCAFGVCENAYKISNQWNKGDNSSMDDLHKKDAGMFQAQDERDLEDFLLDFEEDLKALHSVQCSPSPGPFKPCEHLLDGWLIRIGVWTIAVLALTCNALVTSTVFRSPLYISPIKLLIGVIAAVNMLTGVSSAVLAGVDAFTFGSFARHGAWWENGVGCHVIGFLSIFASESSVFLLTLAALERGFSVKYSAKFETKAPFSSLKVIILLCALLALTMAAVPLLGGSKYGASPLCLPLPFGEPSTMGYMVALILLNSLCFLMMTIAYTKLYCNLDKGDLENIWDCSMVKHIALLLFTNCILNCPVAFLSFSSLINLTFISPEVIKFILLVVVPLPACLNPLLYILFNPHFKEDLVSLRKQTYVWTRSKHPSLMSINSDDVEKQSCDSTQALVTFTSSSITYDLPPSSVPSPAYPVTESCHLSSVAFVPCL
Test: western blot of lysates of HEK293T cells expressing mLGR5, hLGR5 or cynoLGR5 transgenes, probed with hybridoma clone 3

B1: α-LGR5 clone 3 (antibody, mouse IgG1, kappa, V domains shown)
VH: QVQLQQPGAELVKPGASVKLSCKASGYTFTSYWMQWVKQRPGQGLEWIGEIDPSDSYSNYNQKFKGKATLTVDTSSSTAYMQLSSLTSEDSAVYYCARSLSGYVDYWGQGTTLTVSS
VL: DIQMTQTTSSLSASLGDRVTISCRASQDISNRLNWYQQKPDGTVKLLISYRSRLQSGVPSRFSGSGSGTDYSLTISNLEEEDIATYFCQQGNTLPPTFGGGTKLEVRR
notes: Murine monoclonal antibody from hybridoma; also called hybridoma clone 3; antibody 3
Question: Does B1 bind?
Answer: binds
